The source of these data is patent US20260207704A1, “STAPLED PEPTIDES AND METHODS THEREOF” (priority 2022, published 2026).

*1 amine or outer side, *2 acyl side, *3 side chain or, on linkers, in order; H or OH if unused. Bridges are numbered along the chain shown (N, C = ends). Primed or numbered codes have the meaning given here. [ ]: non-standard residue; d: D form. PyrS2(6) = (S)-3-amino-1-((pent-4-en-1-yloxy)carbonyl)pyrrolidine-3-carboxylic acid, stapled with another olefin-containing amino acid residue through the olefin group, O=C(OCCCC=[*:3])N1CC[C@@](N[*:1])(C(=O)[*:2])C1; B5(4) = 2-amino-2-(pent-4-en-1-yl)hept-6-enoic acid, stapled through each of its two olefin groups with other olefin-containing amino acid residues, O=C(C(CCCC=[*:3])(CCCC=[*:4])N[*:1])[*:2]; PyrS2″ = (S)-3-amino-1-((pent-4-en-1-yloxy)carbonyl)pyrrolidine-3-carboxylic acid (olefin stapling residue), C=CCCCOC(=O)N1CC[C@@](N[*:1])(C(=O)[*:2])C1; PyrS2(3) = (S)-3-amino-1-((pent-4-en-1-yloxy)carbonyl)pyrrolidine-3-carboxylic acid, olefin residue, C=CCCCOC(=O)N1CC[C@@](N[*:1])(C(=O)[*:2])C1; B5(3) = 2-amino-2-(pent-4-en-1-yl)hept-6-enoic acid, two olefin arms, C=CCCCC(CCCC=C)(N[*:1])C(=O)[*:2]; 2F3MeF(3) = aromatic amino acid residue, Cc1cccc(C[C@H](N[*:1])C(=O)[*:2])c1F; 2F3MeF″ = aromatic residue, Cc1cccc(C[C@H](N[*:1])C(=O)[*:2])c1F; Phe(3-COOH) = N[C@@H](Cc1cccc(C(=O)O)c1)C(=O)O; 2F3MeF = Cc1cccc(C[C@H](N[*:1])C(=O)[*:2])c1F; Phe(2-Cl) = N[C@@H](Cc1ccccc1Cl)C(=O)O; Bta = N[C@@H](Cc1csc2ccccc12)C(=O)O; αAllylPro = C=CC[C@@]1(C(=O)O)CCCN1; BztA = aromatic amino acid residue; tBuAla = CC(C)(C)C[C@H](N)C(=O)O; Biphen33COOH = not defined here; 3Thi = N[C@@H](Cc1ccsc1)C(=O)O; Cha = N[C@@H](CC1CCCCC1)C(=O)O; PyrS2(4) = not defined here; hSer = N[C@@H](CCO)C(=O)O; BztA″ = aromatic residue; TfeGA = not defined here; AsnR = not defined here; GlnR = not defined here; PL3 = not defined here; B5 = not defined here Bounds are passed on as bounds.

In assay [1] the target is beta-catenin (human). Description: fluorescence polarization; bin >50 nM. On the technique in general: In fluorescence polarisation assays a small probe gives low polarisation when free and higher when bound to something large.
Chain of beta-catenin (human) (B6V8E6 146-665 limits assumed): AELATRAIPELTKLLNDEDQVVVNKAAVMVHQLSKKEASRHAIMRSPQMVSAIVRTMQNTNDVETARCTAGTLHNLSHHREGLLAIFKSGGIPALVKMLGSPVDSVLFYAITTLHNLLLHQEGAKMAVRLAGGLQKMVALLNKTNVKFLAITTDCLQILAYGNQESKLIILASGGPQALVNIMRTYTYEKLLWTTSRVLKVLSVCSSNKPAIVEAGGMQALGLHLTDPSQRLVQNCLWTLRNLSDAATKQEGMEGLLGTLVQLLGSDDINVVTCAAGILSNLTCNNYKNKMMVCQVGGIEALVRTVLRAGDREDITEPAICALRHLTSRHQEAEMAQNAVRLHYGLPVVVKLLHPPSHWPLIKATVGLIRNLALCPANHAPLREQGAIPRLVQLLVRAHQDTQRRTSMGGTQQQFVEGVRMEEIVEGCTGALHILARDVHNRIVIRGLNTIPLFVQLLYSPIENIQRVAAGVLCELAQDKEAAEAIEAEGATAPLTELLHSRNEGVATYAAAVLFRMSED
For assay [2], the target named is beta-catenin (human). Description: cell-based or functional assay.
Assay [3] addresses beta-catenin (human). Description: fluorescence polarization; bin >200 nM.

B1: I-59 (peptide)
peptide: Ac-[αAllylPro]D[tBuAla][B5(3)]D[Phe(3-COOH)]AAFK[PyrS2(3)][2F3MeF″][Bta][AsnR]A-NH2
modifications: bridge 10-14; not fully specified (bridges); printed as Ac-PL3-Asp-Npg-B5-Asp-3COOHF-Ala-Ala-Phe-Lys*3-PyrS2-2F3MeF-BztA-AsnR*3-Ala-NH2; reading uncertain
In general, IC50 refers to the midpoint of a concentration-inhibition curve. The low end stands for higher potency, the high end for lower potency. In the assay with beta-catenin (human) [1], B1 registered an IC50 of less than 200 nM. Further, in the assay with beta-catenin (human) [2], the NanoBRET Abs IC50 is more than 10000 nM.

B2: I-49 (peptide)
peptide: Ac-[αAllylPro]D[tBuAla][B5(4)]D[Phe(3-COOH)]KAFL[PyrS2(6)][3Thi][Bta]K-NH2
modifications: not fully specified (residues 6, 7, bridges); printed as Ac-PL3-Asp-Npg-B5-Asp-3COOHF-[Biphen33COOH]-Lys-Ala-Phe-Leu-PyrS2-3Thi-BztA-Lys-NH2
For the molecule B2, the IC50 with beta-catenin (human) [1] is less than 200 nM.

B3: I-132 (peptide)
peptide: Ac-[αAllylPro]D[tBuAla][B5]D[Phe(3-COOH)][GlnR](29N2spiroundecane)AFL[PyrS2″][2F3MeF″][BztA″][GlnR]A-NH2
modifications: reading uncertain; also: staple links not given here, printed as Ac-PL3-Asp-Npg-B5-Asp-3COOHF-[29N2spiroundecane]GlnR-Ala-Phe-Leu-PyrS2-2F3MeF-BztA-GlnR-Ala-NH2
In the assay with beta-catenin (human) [1], B3 gave an IC50 of less than 200 nM. The same molecule showed a NanoBRET Abs IC50 in the assay with beta-catenin (human) [2] of more than 10000 nM.

B4: I-93 (peptide)
peptide: Ac-[αAllylPro]D[tBuAla][B5(4)]D[Phe(3-COOH)][GlnR]AFL[PyrS2″][2F3MeF(3)][BztA][GlnR](4aminopiperidine)A-NH2
modifications: staple 1-4 (inferred); not fully specified (bridges); printed as Ac-PL3-Asp-Npg-B5-Asp-3COOHF-GlnR-Ala-Phe-Leu-PyrS2-2F3MeF-BztA-[4aminopiperidine]GlnR-Ala-NH2; reading uncertain
Take B4: the IC50 in the assay with beta-catenin (human) [3] is less than 750 nM.

B5: I-111 (peptide)
peptide: Ac-[PL3]D[tBuAla][B5]D[Phe(3-COOH)][Cha]AFK[PyrS2(4)][2F3MeF][Bta][GlnR]L-NH2
modifications: staple 1-4; bridge 10-14; reading uncertain; also: PyrS2 tied into a staple, partner not placed, printed as Ac-PL3-Asp-Npg-B5-Asp-3COOHF-Cha-Ala-Phe-Lys*3-PyrS2-2F3MeF-BztA-GlnR*3-Leu-NH2
With B5, the IC50 in the assay with beta-catenin (human) [1] was less than 200 nM.

B6: I-89 (peptide)
peptide: Ac-[PL3][hSer][tBuAla][B5]D[Phe(3-COOH)]QAFK[PyrS2″][3Thi][BztA][GlnR]A-NH2
modifications: staple 1-4 (inferred); bridge 10-14; not fully specified (residue 10, bridges); printed as Ac-PL3-Hse-Npg-B5-Asp-3COOHF-Gln-Ala-Phe-Lys*3-PyrS2-3Thi-BztA-GlnR*3-Ala-NH2; reading uncertain; also: Lys10 and GlnR14 marked *3
In turn, B6 had an IC50 in the assay with beta-catenin (human) [1] of less than 200 nM.

B7: I-94 (peptide)
peptide: Ac-[αAllylPro]D[tBuAla][B5(4)]D[Phe(3-COOH)][GlnR](4aminopiperidine)AFL[PyrS2″][2F3MeF(3)][BztA][GlnR]A-NH2
modifications: staple 1-4 (inferred); not fully specified (bridges); printed as Ac-PL3-Asp-Npg-B5-Asp-3COOHF-[4aminopiperidine]GlnR-Ala-Phe-Leu-PyrS2-2F3MeF-BztA-GlnR-Ala-NH2; reading uncertain
For B7, in the assay with beta-catenin (human) [3], the IC50 was less than 750 nM.

B8: I-130 (peptide)
peptide: Ac-[αAllylPro]D[tBuAla][B5]D[Phe(3-COOH)][GlnR]AFL[PyrS2″][2F3MeF″][BztA″][(39N2spiroundecane)GlnR]A-NH2
modifications: reading uncertain; also: staple links not given here, printed as Ac-PL3-Asp-Npg-B5-Asp-3COOHF-GlnR-Ala-Phe-Leu-PyrS2-2F3MeF-BztA-[39N2spiroundecane]GlnR-Ala-NH2
In turn, B8 had an IC50 in the assay with beta-catenin (human) [1] of less than 200 nM. In the assay with beta-catenin (human) [2], the NanoBRET Abs IC50 is more than 10000 nM.

B9: I-50 (peptide)
peptide: Ac-[αAllylPro]D[tBuAla][B5(4)]D[Phe(3-COOH)]K(isophthalate)AFL[PyrS2(6)][Phe(2-Cl)][Bta]K-NH2
modifications: not fully specified (residue 6, bridges); printed as Ac-PL3-Asp-Npg-B5-Asp-3COOHF-[isophthalate]-Lys-Ala-Phe-Leu-PyrS2-2ClF-BztA-Lys-NH2; also: isophthalate on Lys7 side chain is a staple, partner not given here
B9 registered an IC50 with beta-catenin (human) [1] of less than 200 nM.

B10: I-114 (peptide)
peptide: Ac-[PL3]N[tBuAla][B5]D[TfeGA]AAFK[PyrS2(4)][2F3MeF][Bta][GlnR]A-NH2
modifications: staple 1-4; bridge 10-14; reading uncertain; also: PyrS2 tied into a staple, partner not placed
B10: the IC50 in the assay with beta-catenin (human) [1] was less than 200 nM.

B11: I-85 (peptide)
peptide: Ac-[PL3][hSer][tBuAla][B5]D[Phe(3-COOH)]SAFK[PyrS2″][3Thi][BztA][GlnR]A-NH2
modifications: staple 1-4 (inferred); bridge 10-14; not fully specified (residue 10, bridges); printed as Ac-PL3-Hse-Npg-B5-Asp-3COOHF-Ser-Ala-Phe-Lys*3-PyrS2-3Thi-BztA-GlnR*3-Ala-NH2; reading uncertain; also: Lys10 and GlnR14 marked *3
B11 had an IC50 with beta-catenin (human) [1] of less than 200 nM.

B12: I-81 (peptide)
peptide: Ac-[PL3][hSer][tBuAla][B5]D[Phe(3-COOH)]AAFK[PyrS2″][3Thi][BztA][GlnR]A-NH2
modifications: staple 1-4 (inferred); bridge 10-14; not fully specified (residue 10, bridges); printed as Ac-PL3-Hse-Npg-B5-Asp-3COOHF-Ala-Ala-Phe-Lys*3-PyrS2-3Thi-BztA-GlnR*3-Ala-NH2; reading uncertain
In the case of B12, the IC50 with beta-catenin (human) [1] is less than 200 nM.

B13: I-128 (peptide)
peptide: Ac-[αAllylPro]D[tBuAla][B5(4)]D[TfeGA]AAFK[PyrS2″][2F3MeF][Bta][GlnR]L-NH2
modifications: bridge 10-14; not fully specified (bridges); reading uncertain; also: Lys*3 and GlnR*3 marked *3
Consider B13, for which, in the assay with beta-catenin (human) [1], the IC50 was less than 200 nM. In the assay with beta-catenin (human) [2], this molecule gave a NanoBRET Abs IC50 (bin >3.0 uM) of less than 10000 nM.

B14: I-86 (peptide)
peptide: Ac-[PL3]D[tBuAla][B5]N[Phe(3-COOH)]SAFK[PyrS2″][3Thi][BztA][GlnR]A-NH2
modifications: staple 1-4 (inferred); bridge 10-14; not fully specified (residue 10, bridges); printed as Ac-PL3-Asp-Npg-B5-Asn-3COOHF-Ser-Ala-Phe-Lys*3-PyrS2-3Thi-BztA-GlnR*3-Ala-NH2; reading uncertain; also: Lys10 and GlnR14 marked *3
For B14, in the assay with beta-catenin (human) [1], the IC50 was less than 200 nM.

B15: I-58 (peptide)
peptide: Ac-[αAllylPro]D[tBuAla][B5(3)]D[Phe(3-COOH)]AAFK[PyrS2(3)][2F3MeF″][Bta][AsnR]A-NH2
modifications: bridge 10-14; not fully specified (bridges); printed as Ac-PL3-Asp-Npg-B5-Asp-3COOHF-Ala-Ala-Phe-Lys*3-PyrS2-2F3MeF-BztA-AsnR*3-Ala-NH2; reading uncertain
In the case of B15, in the assay with beta-catenin (human) [1], the IC50 was less than 200 nM. The NanoBRET Abs IC50 with beta-catenin (human) [2] was more than 10000 nM.

B16: I-53 (peptide)
peptide: Ac-[αAllylPro]D[tBuAla][B5(3)]D[Phe(3-COOH)]K(diphenate)AFL[PyrS2(3)][Phe(2-Cl)][Bta]K-NH2
modifications: not fully specified (residue 6, bridges); printed as Ac-PL3-Asp-Npg-B5-Asp-3COOHF-[diphenate]Lys-Ala-Phe-Leu-PyrS2-2ClF-BztA-Lys-NH2
In the assay with beta-catenin (human) [1], B16 had an IC50 of less than 200 nM.

B17: I-91 (peptide)
peptide: Ac-[PL3]D[tBuAla][B5][hSer][Phe(3-COOH)]QAFK[PyrS2″][3Thi][BztA][GlnR]A-NH2
modifications: staple 1-4 (inferred); bridge 10-14; not fully specified (residue 10, bridges); printed as Ac-PL3-Asp-Npg-B5-Hse-3COOHF-Gln-Ala-Phe-Lys*3-PyrS2-3Thi-BztA-GlnR*3-Ala-NH2; reading uncertain; also: Lys10 and GlnR14 marked *3
For the molecule B17, the IC50 with beta-catenin (human) [3] was less than 750 nM.

B18: I-123 (peptide)
peptide: Ac-[αAllylPro]D[tBuAla][B5(4)]D[TfeGA]FAFK[PyrS2″][2F3MeF][Bta][GlnR]A-NH2
modifications: bridge 10-14; not fully specified (bridges); reading uncertain; also: Lys*3 and GlnR*3 marked *3
The molecule B18 gave an IC50 with beta-catenin (human) [1] of less than 200 nM. This molecule had a NanoBRET Abs IC50 in the assay with beta-catenin (human) [2] of more than 10000 nM.

B19: I-54 (peptide)
peptide: Ac-[αAllylPro]D[tBuAla][B5(3)]D[Phe(3-COOH)]K(Biphen33COOH)AFL[PyrS2(3)][Phe(2-Cl)][Bta]K-NH2
modifications: not fully specified (residue 6, bridges); printed as Ac-PL3-Asp-Npg-B5-Asp-3COOHF-[Biphen33COOH]Lys-Ala-Phe-Leu-PyrS2-2ClF-BztA-Lys-NH2; reading uncertain
As to B19, in the assay with beta-catenin (human) [1], the IC50 was less than 200 nM.
